T1: FcγRIIa R (human, UniProt P12318 34-217)
T1 construct: extracellular domain; also called FcgRIIa R type; 2aR
T1 sequence (looked up): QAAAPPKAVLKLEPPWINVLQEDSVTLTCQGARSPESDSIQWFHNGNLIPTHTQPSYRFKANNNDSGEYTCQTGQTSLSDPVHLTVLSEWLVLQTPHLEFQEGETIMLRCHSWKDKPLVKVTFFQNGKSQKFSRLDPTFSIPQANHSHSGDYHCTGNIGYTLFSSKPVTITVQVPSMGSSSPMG


Target: T1, FcγRIIa R
Assay: SPR (Biacore), captured antibody, FcγR as analyte; relative binding activity
Protocol: Analysis of interaction between objective antibody and the FcγR was carried out using Biacore T100 (GE Healthcare). HBS-EP+ (GE Healthcare) was used as the running buffer, and the measurement temperature was set to 25° C. Chips produced by immobilizing the antigen peptide by the amine coupling method to a Series S Sencor Chip CM5 (GE Healthcare), or alternatively, chips produced by allowing preliminarily biotinylated antigen peptides to interact with and immobilize onto a Series S Sensor Chip SA (certified) (GE Healthcare) were used. Antibodies of interest were captured onto an antigen peptide-immobilized chip, and allowed to interact to each FcγR diluted with running buffer. To regenerate and repeatedly use the chip, the antibodies captured on the chip were washed off by reacting 10 mM glycine-HCl, pH 1.5.

Binder	Ho/Con_2aR
GpH7-B3 variant N325_01G/GpL16-k0 (antibody, human IgG1, kappa, also called Ho Ab N325_01G) heavy: not shown light: DIVMTQSPLSLPVTPGEPASISCQASESLVHSNRNTYLHWYLQKPGQSPQLLIYKVSNRFSGVPDRFSGSGSGTDFTLKISRVEAEDVGVYYCSQNTHVPPTFGQGTKVEIERTVAAPSVFIFPPSDEQLKSGTASVVCLLNNFYPREAKVQWKVDNALQSGNSQESVTEQDSKDSTYSLSSTLTLSKADYEKHKVYACEVTHQGLSSPVTKSFNRGEC	26.7 % (GpH7-B3/GpL16-k0 = 100)
GpH7-B3 variant A327_09D/GpL16-k0 (antibody, human IgG1, kappa, also called Ho Ab A327_09D) heavy: not shown light: DIVMTQSPLSLPVTPGEPASISCQASESLVHSNRNTYLHWYLQKPGQSPQLLIYKVSNRFSGVPDRFSGSGSGTDFTLKISRVEAEDVGVYYCSQNTHVPPTFGQGTKVEIERTVAAPSVFIFPPSDEQLKSGTASVVCLLNNFYPREAKVQWKVDNALQSGNSQESVTEQDSKDSTYSLSSTLTLSKADYEKHKVYACEVTHQGLSSPVTKSFNRGEC	120 % (GpH7-B3/GpL16-k0 = 100)
GpH7-B3 variant A327_10E/GpL16-k0 (antibody, human IgG1, kappa, also called Ho Ab A327_10E) heavy: not shown light: DIVMTQSPLSLPVTPGEPASISCQASESLVHSNRNTYLHWYLQKPGQSPQLLIYKVSNRFSGVPDRFSGSGSGTDFTLKISRVEAEDVGVYYCSQNTHVPPTFGQGTKVEIERTVAAPSVFIFPPSDEQLKSGTASVVCLLNNFYPREAKVQWKVDNALQSGNSQESVTEQDSKDSTYSLSSTLTLSKADYEKHKVYACEVTHQGLSSPVTKSFNRGEC	104 % (GpH7-B3/GpL16-k0 = 100)
GpH7-B3 variant A330_01G/GpL16-k0 (antibody, human IgG1, kappa, also called Ho Ab A330_01G) heavy: not shown light: DIVMTQSPLSLPVTPGEPASISCQASESLVHSNRNTYLHWYLQKPGQSPQLLIYKVSNRFSGVPDRFSGSGSGTDFTLKISRVEAEDVGVYYCSQNTHVPPTFGQGTKVEIERTVAAPSVFIFPPSDEQLKSGTASVVCLLNNFYPREAKVQWKVDNALQSGNSQESVTEQDSKDSTYSLSSTLTLSKADYEKHKVYACEVTHQGLSSPVTKSFNRGEC	106 % (GpH7-B3/GpL16-k0 = 100)
GpH7-B3 variant A330_05P/GpL16-k0 (antibody, human IgG1, kappa, also called Ho Ab A330_05P) heavy: not shown light: DIVMTQSPLSLPVTPGEPASISCQASESLVHSNRNTYLHWYLQKPGQSPQLLIYKVSNRFSGVPDRFSGSGSGTDFTLKISRVEAEDVGVYYCSQNTHVPPTFGQGTKVEIERTVAAPSVFIFPPSDEQLKSGTASVVCLLNNFYPREAKVQWKVDNALQSGNSQESVTEQDSKDSTYSLSSTLTLSKADYEKHKVYACEVTHQGLSSPVTKSFNRGEC	36.2 % (GpH7-B3/GpL16-k0 = 100)
GpH7-B3 variant A330_11K/GpL16-k0 (antibody, human IgG1, kappa, also called Ho Ab A330_11K) heavy: not shown light: DIVMTQSPLSLPVTPGEPASISCQASESLVHSNRNTYLHWYLQKPGQSPQLLIYKVSNRFSGVPDRFSGSGSGTDFTLKISRVEAEDVGVYYCSQNTHVPPTFGQGTKVEIERTVAAPSVFIFPPSDEQLKSGTASVVCLLNNFYPREAKVQWKVDNALQSGNSQESVTEQDSKDSTYSLSSTLTLSKADYEKHKVYACEVTHQGLSSPVTKSFNRGEC	106 % (GpH7-B3/GpL16-k0 = 100)
GpH7-B3 variant A330_12R/GpL16-k0 (antibody, human IgG1, kappa, also called Ho Ab A330_12R) heavy: not shown light: DIVMTQSPLSLPVTPGEPASISCQASESLVHSNRNTYLHWYLQKPGQSPQLLIYKVSNRFSGVPDRFSGSGSGTDFTLKISRVEAEDVGVYYCSQNTHVPPTFGQGTKVEIERTVAAPSVFIFPPSDEQLKSGTASVVCLLNNFYPREAKVQWKVDNALQSGNSQESVTEQDSKDSTYSLSSTLTLSKADYEKHKVYACEVTHQGLSSPVTKSFNRGEC	101 % (GpH7-B3/GpL16-k0 = 100)
GpH7-B3 variant A330_15Y/GpL16-k0 (antibody, human IgG1, kappa, also called Ho Ab A330_15Y) heavy: not shown light: DIVMTQSPLSLPVTPGEPASISCQASESLVHSNRNTYLHWYLQKPGQSPQLLIYKVSNRFSGVPDRFSGSGSGTDFTLKISRVEAEDVGVYYCSQNTHVPPTFGQGTKVEIERTVAAPSVFIFPPSDEQLKSGTASVVCLLNNFYPREAKVQWKVDNALQSGNSQESVTEQDSKDSTYSLSSTLTLSKADYEKHKVYACEVTHQGLSSPVTKSFNRGEC	87.5 % (GpH7-B3/GpL16-k0 = 100)
GpH7-B3 variant A330_19Q/GpL16-k0 (antibody, human IgG1, kappa, also called Ho Ab A330_19Q) heavy: not shown light: DIVMTQSPLSLPVTPGEPASISCQASESLVHSNRNTYLHWYLQKPGQSPQLLIYKVSNRFSGVPDRFSGSGSGTDFTLKISRVEAEDVGVYYCSQNTHVPPTFGQGTKVEIERTVAAPSVFIFPPSDEQLKSGTASVVCLLNNFYPREAKVQWKVDNALQSGNSQESVTEQDSKDSTYSLSSTLTLSKADYEKHKVYACEVTHQGLSSPVTKSFNRGEC	99.1 % (GpH7-B3/GpL16-k0 = 100)
GpH7-B3 variant E269_09D/GpL16-k0 (antibody, human IgG1, kappa, also called Ho Ab E269_09D) heavy: not shown light: DIVMTQSPLSLPVTPGEPASISCQASESLVHSNRNTYLHWYLQKPGQSPQLLIYKVSNRFSGVPDRFSGSGSGTDFTLKISRVEAEDVGVYYCSQNTHVPPTFGQGTKVEIERTVAAPSVFIFPPSDEQLKSGTASVVCLLNNFYPREAKVQWKVDNALQSGNSQESVTEQDSKDSTYSLSSTLTLSKADYEKHKVYACEVTHQGLSSPVTKSFNRGEC	103 % (GpH7-B3/GpL16-k0 = 100)
GpH7-B3 variant E333_04F/GpL16-k0 (antibody, human IgG1, kappa, also called Ho Ab E333_04F) heavy: not shown light: DIVMTQSPLSLPVTPGEPASISCQASESLVHSNRNTYLHWYLQKPGQSPQLLIYKVSNRFSGVPDRFSGSGSGTDFTLKISRVEAEDVGVYYCSQNTHVPPTFGQGTKVEIERTVAAPSVFIFPPSDEQLKSGTASVVCLLNNFYPREAKVQWKVDNALQSGNSQESVTEQDSKDSTYSLSSTLTLSKADYEKHKVYACEVTHQGLSSPVTKSFNRGEC	92.4 % (GpH7-B3/GpL16-k0 = 100)
GpH7-B3 variant E333_05P/GpL16-k0 (antibody, human IgG1, kappa, also called Ho Ab E333_05P) heavy: not shown light: DIVMTQSPLSLPVTPGEPASISCQASESLVHSNRNTYLHWYLQKPGQSPQLLIYKVSNRFSGVPDRFSGSGSGTDFTLKISRVEAEDVGVYYCSQNTHVPPTFGQGTKVEIERTVAAPSVFIFPPSDEQLKSGTASVVCLLNNFYPREAKVQWKVDNALQSGNSQESVTEQDSKDSTYSLSSTLTLSKADYEKHKVYACEVTHQGLSSPVTKSFNRGEC	99.9 % (GpH7-B3/GpL16-k0 = 100)
GpH7-B3 variant E333_07I/GpL16-k0 (antibody, human IgG1, kappa, also called Ho Ab E333_07I) heavy: not shown light: DIVMTQSPLSLPVTPGEPASISCQASESLVHSNRNTYLHWYLQKPGQSPQLLIYKVSNRFSGVPDRFSGSGSGTDFTLKISRVEAEDVGVYYCSQNTHVPPTFGQGTKVEIERTVAAPSVFIFPPSDEQLKSGTASVVCLLNNFYPREAKVQWKVDNALQSGNSQESVTEQDSKDSTYSLSSTLTLSKADYEKHKVYACEVTHQGLSSPVTKSFNRGEC	98.3 % (GpH7-B3/GpL16-k0 = 100)
GpH7-B3 variant E333_08L/GpL16-k0 (antibody, human IgG1, kappa, also called Ho Ab E333_08L) heavy: not shown light: DIVMTQSPLSLPVTPGEPASISCQASESLVHSNRNTYLHWYLQKPGQSPQLLIYKVSNRFSGVPDRFSGSGSGTDFTLKISRVEAEDVGVYYCSQNTHVPPTFGQGTKVEIERTVAAPSVFIFPPSDEQLKSGTASVVCLLNNFYPREAKVQWKVDNALQSGNSQESVTEQDSKDSTYSLSSTLTLSKADYEKHKVYACEVTHQGLSSPVTKSFNRGEC	97.1 % (GpH7-B3/GpL16-k0 = 100)
GpH7-B3 variant E333_09D/GpL16-k0 (antibody, human IgG1, kappa, also called Ho Ab E333_09D) heavy: not shown light: DIVMTQSPLSLPVTPGEPASISCQASESLVHSNRNTYLHWYLQKPGQSPQLLIYKVSNRFSGVPDRFSGSGSGTDFTLKISRVEAEDVGVYYCSQNTHVPPTFGQGTKVEIERTVAAPSVFIFPPSDEQLKSGTASVVCLLNNFYPREAKVQWKVDNALQSGNSQESVTEQDSKDSTYSLSSTLTLSKADYEKHKVYACEVTHQGLSSPVTKSFNRGEC	96.5 % (GpH7-B3/GpL16-k0 = 100)
GpH7-B3 variant E333_15Y/GpL16-k0 (antibody, human IgG1, kappa, also called Ho Ab E333_15Y) heavy: not shown light: DIVMTQSPLSLPVTPGEPASISCQASESLVHSNRNTYLHWYLQKPGQSPQLLIYKVSNRFSGVPDRFSGSGSGTDFTLKISRVEAEDVGVYYCSQNTHVPPTFGQGTKVEIERTVAAPSVFIFPPSDEQLKSGTASVVCLLNNFYPREAKVQWKVDNALQSGNSQESVTEQDSKDSTYSLSSTLTLSKADYEKHKVYACEVTHQGLSSPVTKSFNRGEC	96.2 % (GpH7-B3/GpL16-k0 = 100)
GpH7-B3 variant G236_14T/GpL16-k0 (antibody, human IgG1, kappa, also called Ho Ab G236_14T) heavy: not shown light: DIVMTQSPLSLPVTPGEPASISCQASESLVHSNRNTYLHWYLQKPGQSPQLLIYKVSNRFSGVPDRFSGSGSGTDFTLKISRVEAEDVGVYYCSQNTHVPPTFGQGTKVEIERTVAAPSVFIFPPSDEQLKSGTASVVCLLNNFYPREAKVQWKVDNALQSGNSQESVTEQDSKDSTYSLSSTLTLSKADYEKHKVYACEVTHQGLSSPVTKSFNRGEC	80 % (GpH7-B3/GpL16-k0 = 100)
GpH7-B3 variant G237_02A/GpL16-k0 (antibody, human IgG1, kappa, also called Ho Ab G237_02A) heavy: not shown light: DIVMTQSPLSLPVTPGEPASISCQASESLVHSNRNTYLHWYLQKPGQSPQLLIYKVSNRFSGVPDRFSGSGSGTDFTLKISRVEAEDVGVYYCSQNTHVPPTFGQGTKVEIERTVAAPSVFIFPPSDEQLKSGTASVVCLLNNFYPREAKVQWKVDNALQSGNSQESVTEQDSKDSTYSLSSTLTLSKADYEKHKVYACEVTHQGLSSPVTKSFNRGEC	84 % (GpH7-B3/GpL16-k0 = 100)
GpH7-B3 variant G237_04F/GpL16-k0 (antibody, human IgG1, kappa, also called Ho Ab G237_04F) heavy: not shown light: DIVMTQSPLSLPVTPGEPASISCQASESLVHSNRNTYLHWYLQKPGQSPQLLIYKVSNRFSGVPDRFSGSGSGTDFTLKISRVEAEDVGVYYCSQNTHVPPTFGQGTKVEIERTVAAPSVFIFPPSDEQLKSGTASVVCLLNNFYPREAKVQWKVDNALQSGNSQESVTEQDSKDSTYSLSSTLTLSKADYEKHKVYACEVTHQGLSSPVTKSFNRGEC	113 % (GpH7-B3/GpL16-k0 = 100)
GpH7-B3 variant G237_06M/GpL16-k0 (antibody, human IgG1, kappa, also called Ho Ab G237_06M) heavy: not shown light: DIVMTQSPLSLPVTPGEPASISCQASESLVHSNRNTYLHWYLQKPGQSPQLLIYKVSNRFSGVPDRFSGSGSGTDFTLKISRVEAEDVGVYYCSQNTHVPPTFGQGTKVEIERTVAAPSVFIFPPSDEQLKSGTASVVCLLNNFYPREAKVQWKVDNALQSGNSQESVTEQDSKDSTYSLSSTLTLSKADYEKHKVYACEVTHQGLSSPVTKSFNRGEC	55.3 % (GpH7-B3/GpL16-k0 = 100)
GpH7-B3 variant G237_08L/GpL16-k0 (antibody, human IgG1, kappa, also called Ho Ab G237_08L) heavy: not shown light: DIVMTQSPLSLPVTPGEPASISCQASESLVHSNRNTYLHWYLQKPGQSPQLLIYKVSNRFSGVPDRFSGSGSGTDFTLKISRVEAEDVGVYYCSQNTHVPPTFGQGTKVEIERTVAAPSVFIFPPSDEQLKSGTASVVCLLNNFYPREAKVQWKVDNALQSGNSQESVTEQDSKDSTYSLSSTLTLSKADYEKHKVYACEVTHQGLSSPVTKSFNRGEC	56.6 % (GpH7-B3/GpL16-k0 = 100)

Reference: US20150344570A1 (published 2015)
